Experimental data reported in patent US20030028904A1 (published 2003).

Target: T1, His-tagged Dock180 (UniProt Q14185 1-1865)
T1 construct: also called His-Dock180; CED-5/Dock180; not shown: His tag
Experiment: co-immunoprecipitation, anti-FLAG IP and anti-Dock180 blot, COS-7 cells (FIG. 20B lane 9)
From the text: COS-7 cells were transfected with the indicated plasmids and the lysates were immunoprecipitated with anti-FLAG antibody and immunoblotted with anti-Dock180 (a mixture of N- and C-terminal antibodies). The same blot was stripped and reprobed with anti-FLAG to determine expression of the FLAG-tagged proteins. Immunoblotting of total lysates indicated the expression of Dock180 in the appropriate lanes. FIG. 20C is a photograph of a blot showing that ELMO1 and ELMO2 interact with Dock180. COS-7 cells were transfected as above with plasmids coding for FLAG-tagged ELMO1, ELMO2, the N-term or C-term versions of ELMO1 along with His-Dock180. After anti-FLAG immunoprecipitation, the coprecipitation of Dock180 was analyzed by immunoblotting. FIG. 20D is a photograph of a blot showing that CED-12 interacts with CED-5, but not Rac in a yeast two-hybrid assay. Interaction between Caenorhabditis elegans CED-12 and CED-5 as well as Rac wt and mutants were analyzed by yeast two-hybrid interaction as described in the Experimental procedures. Growth seen on selective plates is shown. FIG. 20E is a photograph of a blot showing that formation of a trimeric complex between ELMO1, CrkII and Dock180. […]
It was determined whether there might be a physical interaction between ELMO1 and Dock180, Rac or CrkII. […]

- binding result: no binding
B1: FLAG-tagged human CED-6 (other, UniProt Q9UBP9 1-304, looked up)
chain: MNRAFSRKKDKTWMHTPEALSKHFIPYNAKFLGSTEVEQPKGTEVVRDAVRKLKFARHIKKSEGQKIPKVELQISIYGVKILEPKTKEVQHNCQLHRISFCADDKTDKRIFTFICKDSESNKHLCYVFDSEKCAEEITLTIGQAFDLAYRKFLESGGKDVETRKQIAGLQKRIQDLETENMELKNKVQDLENQLRITQVSAPPAGSMTPKSPSTDIFDMIPFSPISHQSSMPTRNGTQPPPVPSRSTEIKRDLFGAEPFDPFNCGAADFPPDIQSKLDEMQEGFKMGLTLEGTVFCLDPLDSRC
notes: not shown: FLAG tag
